Target: the molecule itself
Assay: mass photometry

B1: full-length, wild-type Cdc13 (natural protein, S. cerevisiae, UniProt P32797 1-924, looked up)
chain: MDTLEEPECPPHKNRIFVSSSKDFEGYPSKAIVPVQFVALLTSIHLTETKCLLGFSNFERRGDQSQEDQYLIKLKFKDRGSERLARITISLLCQYFDIELPDLDSDSGASPTVILRDIHLERLCFSSCKALYVSKHGNYTLFLEDIKPLDLVSVISTISTKSTNSSKHSSSELISECDLNNSLVDIFNNLIEMNRDEKNRFKFVKLIHYDIELKKFVQDQQKVLSQKSKAAAINPFFVPNRLGIPYIESQNEFNSQLMTLNVDEPTTDISNMGEEMHDSADPIEDSDSSTTSSTGKYFSSKSYIQSQTPERKTSVPNNWHDDDSGSKRKRKLSFHSPNASSIRKAISYEQLSLASVGSVERLEGKIVGMNPPQFASINEFKYCTLKLYFTQLLPNVPDKVLVPGVNCIEIVIPTRERICELFGVLNCQSDKISDILLLEKPDRISVEVERILWDNDKTASPGMAVWSLKNISTDTQAQAQVQVPAQSSASIDPSRTRMSKMARKDPTIEFCQLGLDTFETKYITMFGMLVSCSFDKPAFISFVFSDFTKNDIVQNYLYDRYLIDYENKLELNEGFKAIMYKNQFETFDSKLRKIFNNGLRDLQNGRDENLSQYGIVCKMNIKVKMYNGKLNAIVRECEPVPHSQISSIASPSQCEHLRLFYQRAFKRIGESAISRYFEEYRRFFPIHRNGSHLAKLRFDEVKHEPKKSPTTPALAEHIPDLNADVSSFDVKFTDISSLLDSSARLPRPQQTHKSNTLYSCEGRIIAIEYHASDLCFHITNELPLLQTRGLAPERVLQLHIITSKNFAYFFNRSSAYLQRQPLEEKYTQLAQFLGHSFKFNITSSLTLFPDTTVALQIWCPIECTFRELQQQLAHPKVAAAPDSGSLDCAINATVNPLRLLAAQNGVTVKKEEDNDDDAGAVPTS
Q: How did the “stoichiometry N” value turn out when B1 was run?
A: The value was 2.
